Legend:
[1] = target: T1, biotinylated PD1-ECD-AviHis (human, UniProt Q15116 25-170, biotinylated (Avi tag)); test: ELISA, biotinylated PD1-ECD-AviHis on streptavidin plates
T1 construct: extracellular domain; also called huPD1; hu PD1; not shown: Avi and His tags

[2] = target: T2, biotinylated Tim3-ECD-AviHis (human, UniProt Q8TDQ0 22-202, biotinylated (Avi tag)); test: ELISA on biotinylated Tim3-ECD-AviHis
T2 construct: extracellular domain; also called huTIM3; hu Tim3; not shown: Avi and His tags

B1: Chimeric PD1-0103 (antibody, V domains shown)
VH: EVILVESGGGLVKPGGSLKLSCAASGFSFSSYTMSWVRQTPEKRLDWVATISGGGRDIYYPDSVKGRFTISRDNAKNTLYLEMSSLMSEDTALYYCVLLTGRVYFALDSWGQGTSVTVSS
VL: KIVLTQSPASLPVSLGQRATISCRASESVDTSDNSFIHWYQQRPGQSPKLLIYRSSTLESGVPARFSGSGSRTDFTLTIDPVEADDVATYYCQQNYDVPWTFGGGTKLEIK
notes: Bivalent IgG; also called PD1 IgG (bivalent); copies: 2 + 2
In the case of B1, the EC50 [1] is reported as 0.12 nM and the binding result [2] is reported as “no binding”.
